Measurements: publication PMC12065222

How the values were obtained:
[1] = surface PD-L1 flow cytometry, MCF7; details: glycan lost; control: WT PD-L1, MCF7
[2] = surface PD-L1 flow cytometry, MDA-MB231; details: glycan lost; control: WT PD-L1, MDA-MB231
[3] = target: PD-1 on IcAR-PD-1 cells (Immune Checkpoint Artificial Reporter overexpressing PD-1) (human) (UniProt Q15116)
[4] = target: PD-1 on IcAR-PD-1 cells (Immune Checkpoint Artificial Reporter overexpressing PD-1) (human) (UniProt Q15116); remark: listed apart in the source
[5] = target: PD-1 on primary human CD8+ T cells (human (endogenous in primary T cells of donors)) (UniProt Q15116)
[6] = target: PD-1 on primary human CD8+ T cells (human (endogenous in primary T cells of donors)) (UniProt Q15116); remark: listed apart in the source
[7] = EV-bound PD-L1 ELISA after ultracentrifugation; details: glycan lost; control: WT PD-L1
[8] = IcAR-PD-1 mIL-2 with ICBs, A375 and A549 cells; details: glycan lost; control: WT PD-L1
[9] = PD-L1 ELISA of cell lysates, MDA-MB231 and MCF7; details: glycan lost; control: WT PD-L1
[10] = soluble PD-L1 ELISA of supernatants, MDA-MB231 and MCF7; details: glycan lost; control: WT PD-L1
[11] = total-cellular/membrane PD-L1 ratio, flow cytometry, fixed MCF7; details: glycan lost; control: WT PD-L1, MCF7
[12] = total-cellular/membrane PD-L1 ratio, flow cytometry, fixed MDA-MB231; details: glycan lost; control: WT PD-L1, MDA-MB231
[13] = target: PD-1 on IcAR-PD-1 cells (Immune Checkpoint Artificial Reporter overexpressing PD-1) (human) (UniProt Q15116); remark: listed apart in the source
[14] = target: PD-1 on IcAR-PD-1 cells (Immune Checkpoint Artificial Reporter overexpressing PD-1) (human) (UniProt Q15116); remark: listed apart in the source
[15] = target: PD-1 on IcAR-PD-1 cells (Immune Checkpoint Artificial Reporter overexpressing PD-1) (human) (UniProt Q15116); remark: listed apart in the source

Substance: PD-L1: N192A
- expression_or_secretion, fold_change [1]: no change
- expression_or_secretion, fold_change [2]: no change

Substance: PD-L1 Nx4 mutant (all four N-glycosylation sites replaced by alanine) (from UniProt Q9NZQ7 19-290) (ligand)
- percent blocking of the mIL-2 signal of IcAR-PD-1 cells by anti-PD-1 antibodies Pembrolizumab, Nivolumab, Cemiplimab, all concentrations, MDA-MB231 and MCF7 cells [3]: 100%
- mIL-2 response of IcAR-PD-1 cells incubated 24 h with formalin-fixed MCF7 cells, no antibody; fold reduction against PD-L1WT (fold reduction) [4]: 22
- mIL-2 response of IcAR-PD-1 cells incubated 24 h with formalin-fixed MDA-MB231 cells, no antibody; fold reduction against PD-L1WT (fold reduction) [4]: 10
- percent of CD107a+ cells among CD8+ PD-1+ TCM cells (degranulation) after 4 h co-culture of anti-hCD3-activated PBMCs with MCF7 cells [5]: 6.1%
- percent of CD107a+ cells among CD8+ PD-1+ TCM cells (degranulation) after 4 h co-culture of anti-hCD3-activated PBMCs with MDA-MB231 cells [5]: 10.3%
- percent lysis of MCF7 target cells by PBMCs (killing assay) [6]: 7%
- percent lysis of MDA-MB231 target cells by PBMCs (killing assay) [6]: 39.1%

Substance: PD-L1: N35A
- expression_or_secretion, fold_change [1]: no change
- expression_or_secretion, fold_change [2]: no change
- expression_or_secretion [7]: increases
- other: antibody blockade of PD-L1/PD-1 interaction [8]: decreases
- expression_or_secretion [9]: no change
- expression_or_secretion [10]: increases, decreased by approximately 35% in MDA-MB231 PD-L1N35A cells and about 45% in MCF7 PD-L1N35A cells
- localisation_or_trafficking [11]: no change
- localisation_or_trafficking, fold_change [12]: no change, a slight increase in total-cellular PD-L1 levels was observed in PD-L1N35A mutant MDA-MB231 cells

Substance: PD-L1: N200A
- expression_or_secretion, fold_change [1]: no change
- expression_or_secretion, fold_change [2]: no change

Substance: PD-L1: N219A
- expression_or_secretion, fold_change [1]: no change
- expression_or_secretion, fold_change [2]: no change

Substance: PD-L1 N35A glycosylation mutant (from UniProt Q9NZQ7 19-290) (ligand)
- percent blocking of the mIL-2 signal of IcAR-PD-1 cells by the anti-PD-1 antibody Nivolumab (1.5-40 µg/mL), MCF7 cells [13]: > 50%
- percent blocking of the mIL-2 signal of IcAR-PD-1 cells by Cemiplimab (anti-PD-1, 10 µg/mL), fixed MCF7 cells [14]: 53%
- percent blocking of the mIL-2 signal of IcAR-PD-1 cells by Cemiplimab (anti-PD-1, 10 µg/mL), fixed MDA-MB231 cells [14]: 19.6%
- percent blocking of the mIL-2 signal of IcAR-PD-1 cells by Nivolumab (anti-PD-1, 10 µg/mL), fixed MCF7 cells [14]: 98.6%
- percent blocking of the mIL-2 signal of IcAR-PD-1 cells by Nivolumab (anti-PD-1, 10 µg/mL), fixed MDA-MB231 cells [14]: 83.2%
- percent blocking of the mIL-2 signal of IcAR-PD-1 cells by Pembrolizumab (anti-PD-1, 10 µg/mL), fixed MCF7 cells [14]: 100%
- percent blocking of the mIL-2 signal of IcAR-PD-1 cells by Pembrolizumab (anti-PD-1, 10 µg/mL), fixed MDA-MB231 cells [14]: 91.6%
- percent of CD107a+ cells among CD8+ PD-1+ TCM cells (degranulation) after 4 h co-culture of anti-hCD3-activated PBMCs with MCF7 cells [5]: 3.1%
- percent of CD107a+ cells among CD8+ PD-1+ TCM cells (degranulation) after 4 h co-culture of anti-hCD3-activated PBMCs with MDA-MB231 cells [5]: 3.7%
- percent lysis of MCF7 target cells by PBMCs (killing assay) [6]: 3.8%
- percent lysis of MDA-MB231 target cells by PBMCs (killing assay) [6]: 12.2%

Substance: WT PD-L1 (programmed death-ligand 1) (from UniProt Q9NZQ7 19-290)
- concentration of the anti-PD-1 antibody Pembrolizumab that completely blocked the mIL-2 signal of IcAR-PD-1 cells, MDA-MB231 and MCF7 cells [15]: 20 µg/mL
